Measured values: patent publication US20120128626A1 (ALDERBIO, published 2012)

Legend:
Assay in all cases: cell-based or functional assay
Rat IL-6 = molecular target: T1, Rat IL-6 (rat, UniProt P20607 25-211)
T1 sequence (looked up): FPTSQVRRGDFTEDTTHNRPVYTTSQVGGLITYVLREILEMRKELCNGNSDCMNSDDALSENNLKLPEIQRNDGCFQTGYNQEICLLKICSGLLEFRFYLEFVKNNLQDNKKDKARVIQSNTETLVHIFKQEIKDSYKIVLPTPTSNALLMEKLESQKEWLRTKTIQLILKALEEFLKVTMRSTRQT

Cynomolgus monkey IL-6 = molecular target: T2, Cynomolgus monkey IL-6 (cynomolgus monkey, UniProt P79341 28-212, limits assumed)
T2 sequence (looked up): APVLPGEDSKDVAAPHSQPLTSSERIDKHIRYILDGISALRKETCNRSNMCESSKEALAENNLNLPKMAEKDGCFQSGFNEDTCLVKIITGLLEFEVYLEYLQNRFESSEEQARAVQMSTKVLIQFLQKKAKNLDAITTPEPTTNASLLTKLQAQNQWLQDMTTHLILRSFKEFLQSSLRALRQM

Human IL-6 = Human IL-6 (human, UniProt P05231 30-212)
Mouse IL-6 = molecular target: T3, Mouse IL-6 (mouse, UniProt P08505 25-211)
T3 sequence (looked up): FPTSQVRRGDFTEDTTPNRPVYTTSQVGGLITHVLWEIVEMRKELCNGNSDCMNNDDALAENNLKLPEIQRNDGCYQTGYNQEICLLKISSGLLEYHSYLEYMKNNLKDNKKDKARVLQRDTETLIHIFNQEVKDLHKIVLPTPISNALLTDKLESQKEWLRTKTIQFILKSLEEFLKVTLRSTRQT

B1: Ab1 (antibody, human IgG1, kappa, N297A, V domains shown)
VH: EVQLVESGGGLVQPGGSLRLSCAASGFSLSNYYVTWVRQAPGKGLEWVGIIYGSDETAYATSAIGRFTISRDNSKNTLYLQMNSLRAEDTAVYYCARDDSSDWDAKFNLWGQGTLVTVSS
VL: AIQMTQSPSSLSASVGDRVTITCQASQSINNELSWYQQKPGKAPKLLIYRASTLASGVPSRFSGSGSGTDFTLTISSLQPDDFATYYCQQGYSLRNIDNAFGGGTKVEIKR
For B1, the “IC50, inhibition of IL-6-stimulated T1165 cell proliferation” value (shortened to “IC50, inhibition”) (Rat IL-6) was 2.06 nM, the “IC50, inhibition” value (Cynomolgus monkey IL-6) was 0.012 nM and the “IC50, inhibition” value (Human IL-6) was 0.013 nM. The “IC50, inhibition” value (Mouse IL-6) was 1.84 nM.
